# B1: 1ZHC (parent)
# chain: HEFRDEISVLKANNPHFDKIFEKHNQLDDDIKTAEQQNASDAEVSHMKKQKLKLKDEIHSMIIEYREK
# Variants of: B1
# Assay: folding stability dG (cDNA display proteolysis); higher = more stable
# Conditions: PBS, room temperature
row,Variant,folding stability dG
1,HEFRDEISVLKANNPHFDKCFEKHNQLDDDIKTAEQQNASDAEVSHMKKQKLKLKDEIHSMIIEYREK [I20C],-0.061 kcal/mol
2,HEFRDEISVLKANNPHFDKLFEKHNQLDDDIKTAEQQNASDAEVSHMKKQKLKLKDEIHSMIIEYREK [I20L],0.743 kcal/mol
3,HEFRDEISVLKANNPHFDKMFEKHNQLDDDIKTAEQQNASDAEVSHMKKQKLKLKDEIHSMIIEYREK [I20M],-0.166 kcal/mol
4,HEFRDEISVLKANNPHFDKTFEKHNQLDDDIKTAEQQNASDAEVSHMKKQKLKLKDEIHSMIIEYREK [I20T],-0.398 kcal/mol
5,HEFRDEISVLKANNPHFDKVFEKHNQLDDDIKTAEQQNASDAEVSHMKKQKLKLKDEIHSMIIEYREK [I20V],0.461 kcal/mol
6,HEFRDEISVLKANNPHFDKYFEKHNQLDDDIKTAEQQNASDAEVSHMKKQKLKLKDEIHSMIIEYREK [I20Y],-0.117 kcal/mol
7,HEFRDEISVLKANNPHFDKICEKHNQLDDDIKTAEQQNASDAEVSHMKKQKLKLKDEIHSMIIEYREK [F21C],0.68 kcal/mol
8,HEFRDEISVLKANNPHFDKIHEKHNQLDDDIKTAEQQNASDAEVSHMKKQKLKLKDEIHSMIIEYREK [F21H],-0.017 kcal/mol
9,HEFRDEISVLKANNPHFDKIIEKHNQLDDDIKTAEQQNASDAEVSHMKKQKLKLKDEIHSMIIEYREK [F21I],0.372 kcal/mol
10,HEFRDEISVLKANNPHFDKILEKHNQLDDDIKTAEQQNASDAEVSHMKKQKLKLKDEIHSMIIEYREK [F21L],0.554 kcal/mol
11,HEFRDEISVLKANNPHFDKIMEKHNQLDDDIKTAEQQNASDAEVSHMKKQKLKLKDEIHSMIIEYREK [F21M],0.443 kcal/mol
12,HEFRDEISVLKANNPHFDKISEKHNQLDDDIKTAEQQNASDAEVSHMKKQKLKLKDEIHSMIIEYREK [F21S],0.151 kcal/mol
13,HEFRDEISVLKANNPHFDKITEKHNQLDDDIKTAEQQNASDAEVSHMKKQKLKLKDEIHSMIIEYREK [F21T],-0.186 kcal/mol
14,HEFRDEISVLKANNPHFDKIVEKHNQLDDDIKTAEQQNASDAEVSHMKKQKLKLKDEIHSMIIEYREK [F21V],0.263 kcal/mol
15,HEFRDEISVLKANNPHFDKIWEKHNQLDDDIKTAEQQNASDAEVSHMKKQKLKLKDEIHSMIIEYREK [F21W],1.79 kcal/mol
16,HEFRDEISVLKANNPHFDKIYEKHNQLDDDIKTAEQQNASDAEVSHMKKQKLKLKDEIHSMIIEYREK [F21Y],0.959 kcal/mol
17,HEFRDEISVLKANNPHFDKIFAKHNQLDDDIKTAEQQNASDAEVSHMKKQKLKLKDEIHSMIIEYREK [E22A],1.32 kcal/mol
18,HEFRDEISVLKANNPHFDKIFCKHNQLDDDIKTAEQQNASDAEVSHMKKQKLKLKDEIHSMIIEYREK [E22C],0.723 kcal/mol
19,HEFRDEISVLKANNPHFDKIFDKHNQLDDDIKTAEQQNASDAEVSHMKKQKLKLKDEIHSMIIEYREK [E22D],0.198 kcal/mol
20,HEFRDEISVLKANNPHFDKIFFKHNQLDDDIKTAEQQNASDAEVSHMKKQKLKLKDEIHSMIIEYREK [E22F],0.764 kcal/mol

row,Variant,folding stability dG
1,HEFRDEISVLKANNPHFDKIFGKHNQLDDDIKTAEQQNASDAEVSHMKKQKLKLKDEIHSMIIEYREK [E22G],0.979 kcal/mol
2,HEFRDEISVLKANNPHFDKIFHKHNQLDDDIKTAEQQNASDAEVSHMKKQKLKLKDEIHSMIIEYREK [E22H],0.392 kcal/mol
3,HEFRDEISVLKANNPHFDKIFIKHNQLDDDIKTAEQQNASDAEVSHMKKQKLKLKDEIHSMIIEYREK [E22I],0.633 kcal/mol
4,HEFRDEISVLKANNPHFDKIFKKHNQLDDDIKTAEQQNASDAEVSHMKKQKLKLKDEIHSMIIEYREK [E22K],1.57 kcal/mol
5,HEFRDEISVLKANNPHFDKIFLKHNQLDDDIKTAEQQNASDAEVSHMKKQKLKLKDEIHSMIIEYREK [E22L],1.04 kcal/mol
6,HEFRDEISVLKANNPHFDKIFMKHNQLDDDIKTAEQQNASDAEVSHMKKQKLKLKDEIHSMIIEYREK [E22M],1.27 kcal/mol
7,HEFRDEISVLKANNPHFDKIFNKHNQLDDDIKTAEQQNASDAEVSHMKKQKLKLKDEIHSMIIEYREK [E22N],1.34 kcal/mol
8,HEFRDEISVLKANNPHFDKIFQKHNQLDDDIKTAEQQNASDAEVSHMKKQKLKLKDEIHSMIIEYREK [E22Q],1.44 kcal/mol
9,HEFRDEISVLKANNPHFDKIFRKHNQLDDDIKTAEQQNASDAEVSHMKKQKLKLKDEIHSMIIEYREK [E22R],1.57 kcal/mol
10,HEFRDEISVLKANNPHFDKIFSKHNQLDDDIKTAEQQNASDAEVSHMKKQKLKLKDEIHSMIIEYREK [E22S],1.19 kcal/mol
11,HEFRDEISVLKANNPHFDKIFTKHNQLDDDIKTAEQQNASDAEVSHMKKQKLKLKDEIHSMIIEYREK [E22T],1.26 kcal/mol
12,HEFRDEISVLKANNPHFDKIFVKHNQLDDDIKTAEQQNASDAEVSHMKKQKLKLKDEIHSMIIEYREK [E22V],0.395 kcal/mol
13,HEFRDEISVLKANNPHFDKIFWKHNQLDDDIKTAEQQNASDAEVSHMKKQKLKLKDEIHSMIIEYREK [E22W],0.419 kcal/mol
14,HEFRDEISVLKANNPHFDKIFYKHNQLDDDIKTAEQQNASDAEVSHMKKQKLKLKDEIHSMIIEYREK [E22Y],0.584 kcal/mol
15,HEFRDEISVLKANNPHFDKIFEAHNQLDDDIKTAEQQNASDAEVSHMKKQKLKLKDEIHSMIIEYREK [K23A],0.787 kcal/mol
16,HEFRDEISVLKANNPHFDKIFECHNQLDDDIKTAEQQNASDAEVSHMKKQKLKLKDEIHSMIIEYREK [K23C],0.886 kcal/mol
17,HEFRDEISVLKANNPHFDKIFEDHNQLDDDIKTAEQQNASDAEVSHMKKQKLKLKDEIHSMIIEYREK [K23D],0.146 kcal/mol
18,HEFRDEISVLKANNPHFDKIFEEHNQLDDDIKTAEQQNASDAEVSHMKKQKLKLKDEIHSMIIEYREK [K23E],1.16 kcal/mol
19,HEFRDEISVLKANNPHFDKIFEFHNQLDDDIKTAEQQNASDAEVSHMKKQKLKLKDEIHSMIIEYREK [K23F],-0.019 kcal/mol
20,HEFRDEISVLKANNPHFDKIFEHHNQLDDDIKTAEQQNASDAEVSHMKKQKLKLKDEIHSMIIEYREK [K23H],0.386 kcal/mol

# Reference: the MegaScale stability set (Tsuboyama et al. 2023)
